# Where two headings read alike, the source gives them in different places.
# Assays:
# [1] = target: Ld class I major histocompatibility complex molecule (30-5-7+ Ld) (mouse); assay: co-IP
# [2] = target: Ld class I major histocompatibility complex molecule (30-5-7+ Ld) (mouse); assay: co-IP; remark: listed apart in the source
# Ld class I major histocompatibility complex molecule (30-5-7+ Ld) (mouse), sequence (P01897 25-362, one chain of several): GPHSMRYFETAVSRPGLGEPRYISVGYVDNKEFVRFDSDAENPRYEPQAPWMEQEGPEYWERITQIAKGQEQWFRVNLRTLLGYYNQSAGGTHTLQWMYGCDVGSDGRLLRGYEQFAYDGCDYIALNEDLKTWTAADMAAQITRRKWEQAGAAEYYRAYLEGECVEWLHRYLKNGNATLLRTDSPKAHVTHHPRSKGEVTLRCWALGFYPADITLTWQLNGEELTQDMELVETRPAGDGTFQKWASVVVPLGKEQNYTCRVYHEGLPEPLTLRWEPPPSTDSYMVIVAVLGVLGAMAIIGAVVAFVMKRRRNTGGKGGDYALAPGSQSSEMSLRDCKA
substance,measurement,setting,value
MCMV pp89 168-176 peptide,percent precipitable counts,[1],98%
same,pellet cpm (bound peptide),[2],7630 cpm
same,percent precipitable counts,[2],80%

# Reference: PMC2118782
